The values below come from article doi:10.1101/2023.08.15.553463.

This test has as its target actin filaments (F-actin) polymerised from chicken skeletal muscle actin (chicken) (UniProt P68139). Description: TIRF microscopy (gliding filament assay); unpatterned PEG-silane coverslips with 50 nM myosin-5; 1 μM phalloidin-labelled F-actin pre-incubated with 1, 2, 5 or 10 nM CPC for 15 min at room temperature; imaging buffer with 2 mM ATP and calmodulin; about 25°C.

The substance “capping protein complex (CPC): two CapZAB capping protein heterodimers covalently attached through a linker complex (from UniProt P47753 1-286; P47757-2 1-272)” had a median time to rupture of paired filament complexes under myosin-5 tension of 26 to 29 s.
